The results in this text go back to article doi:10.1101/634550.

Broadly, the Kd is the equilibrium constant for the complex coming apart. High values mean lower affinity, low ones higher affinity.

The chains are these.
B1: BCCP1 AW box (-67/-40) (dsDNA)
DNA 1: TTGTGCTCTTTGGTTTCATCGAGAGAGA
DNA 2: TCTCTCTCGATGAAACCAAAGAGCACAA
B2: BADC1m3 (dsDNA)
DNA 1: CCTTCTTCTTTGGTGCCTCCGTCCGCCG
DNA 2: CGGCGGACGGAGGCACCAAAGAAGAAGG
B3: Neg.C (dsDNA)
DNA 1: TGTTACAATCTAGTTACTATTCAGGGTA
DNA 2: TACCCTGAATAGTAACTAGATTGTAACA
B4: BADC3m3 (dsDNA)
DNA 1: GTTGTGTCCTCGTTTACATCGTTATCGT
DNA 2: ACGATAACGATGTAAACGAGGACACAAC
B5: BCCP2 AW box2 (-143/-115) (dsDNA)
DNA 1: CCTACTTCCTCGGTTTCATCGTCCACTG
DNA 2: CAGTGGACGATGAAACCGAGGAAGTAGG
B6: BADC1 AW box (-169/-142) (dsDNA)
DNA 1: CCTTCTTCTTTGGTAACTCCGTCCGCCG
DNA 2: CGGCGGACGGAGTTACCAAAGAAGAAGG
B7: BADC2m3 (dsDNA)
DNA 1: TCGTCTTCCTCGTTCACATCGTTCACTC
DNA 2: GAGTGAACGATGTGAACGAGGAAGACGA
B8: BADC3 AW box (-94/-67) (dsDNA)
DNA 1: GTTGTGTCCTCGTTCATATCGTTATCGT
DNA 2: ACGATAACGATATGAACGAGGACACAAC
B9: BCCP2 AW box1 (-36/-8) (dsDNA)
DNA 1: TGGGTTTCTTCGTAAGCATCGAAATCAG
DNA 2: CTGATTTCGATGCTTACGAAGAAACCCA
B10: BADC2 AW box (-102/-75) (dsDNA)
DNA 1: TCGTCTTCCTCGTTCGTATCGTTCACTC
DNA 2: GAGTGAACGATACGAACGAGGAAGACGA

The series deals with GFP-WRI1(58-240), WRINKLED1 DNA-binding domain (UniProt Q6X5Y6 58-240). The series is described as follows: MST.
Chain of GFP-WRI1(58-240), WRINKLED1 DNA-binding domain (Q6X5Y6 58-240): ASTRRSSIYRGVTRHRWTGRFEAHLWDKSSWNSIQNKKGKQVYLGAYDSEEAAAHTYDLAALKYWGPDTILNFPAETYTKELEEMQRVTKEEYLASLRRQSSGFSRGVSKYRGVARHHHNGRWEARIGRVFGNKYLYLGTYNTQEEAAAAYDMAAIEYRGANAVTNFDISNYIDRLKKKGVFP
Turning to B1, binding was characterised by a dissociation constant (Kd) of 23.9 ± 4.42 nM. The same measure, in the same setting: for B2 the value was 70.7 ± 27.8 nM. On to B3, for which the binding result is “no binding”. Take B4: the dissociation constant Kd amounted to 22.9 ± 2.94 nM. Same read-out and setting: under B5 stands 6.68 ± 0.94 nM; under B6, 0.27 ± 0.27 nM. The same measure, in the same setting: for B7 the value was 149 ± 139 nM; for B8, 5.24 ± 2.59 nM; for B9, 0.65 ± 0.39 nM.

The molecule B10 registered a Kd of 2.73 ± 0.72 nM. This Kd is about 4.2-fold higher than that of the molecule before.
